# Assay results reported in IntAct's records for PubMed 22114287.
# B1: Platelet-activating factor acetylhydrolase IB subunit beta (Mus musculus), P63005 (parent)
# chain: MVLSQRQRDELNRAIADYLRSNGYEEAYSVFKKEAELDMNEELDKKYAGLLEKKWTSVIRLQKKVMELESKLNEAKEEFTSGGPLGQKRDPKEWIPRPPEKYALSGHRSPVTRVIFHPVFSVMVSASEDATIKVWDYETGDFERTLKGHTDSVQDISFDHSGKLLASCSADMTIKLWDFQGFECIRTMHGHDHNVSSVAIMPNGDHIVSASRDKTIKMWEVQTGYCVKTFTGHREWVRMVRPNQDGTLIASCSNDQTVRVWVVATKECKAELREHEHVVECISWAPESSYSSISEATGSETKKSGKPGPFLLSGSRDKTIKMWDVSTGMCLMTLVGHDNWVRGVLFHSGGKFILSCADDKTLRVWDYKNKRCMKTLNAHEHFVTSLDFHKTAPYVVTGSVDQTVKVWECR
# partner: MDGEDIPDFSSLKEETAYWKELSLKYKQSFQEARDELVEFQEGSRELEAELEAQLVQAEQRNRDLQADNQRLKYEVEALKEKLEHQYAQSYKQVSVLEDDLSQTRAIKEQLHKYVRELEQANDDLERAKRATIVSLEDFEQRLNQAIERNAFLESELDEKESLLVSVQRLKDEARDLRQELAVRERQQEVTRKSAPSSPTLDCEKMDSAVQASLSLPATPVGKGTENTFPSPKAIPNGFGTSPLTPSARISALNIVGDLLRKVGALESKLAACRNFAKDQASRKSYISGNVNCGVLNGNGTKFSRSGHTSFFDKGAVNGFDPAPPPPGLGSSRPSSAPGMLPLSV
# Variants of: B1
# Conditions: with ndel1_human NDEL1, Q9GZM8
row,effect of a mutation on the interaction,Variant
1,with no effect,MVLSQRQRDELNRAIADYLRSNGYEEAYSVFKKEAELDMNEELDKKYAGLLEKKWTSVIRLQKKVMELESKLNEAKEEFTSGGPLGQKRDPKEWIPRPPEKYALSGHRSPVTRVIFHPVFSVMVSASEDATIKVWDYETGDFERTLAGHTDSVQDISFDHSGKLLASCSADMTIKLWDFQGFECIRTMHGHDHNVSSVAIMPNGDHIVSASRDKTIKMWEVQTGYCVKTFTGHREWVRMVRPNQDGTLIASCSNDQTVRVWVVATKECKAELREHEHVVECISWAPESSYSSISEATGSETKKSGKPGPFLLSGSRDKTIKMWDVSTGMCLMTLVGHDNWVRGVLFHSGGKFILSCADDKTLRVWDYKNKRCMKTLNAHEHFVTSLDFHKTAPYVVTGSVDQTVKVWECR [K147A]
2,disrupting interaction,MVLSQRQRDELNRAIADYLRSNGYEEAYSVFKKEAELDMNEELDKKYAGLLEKKWTSVIRLQKKVMELESKLNEAKEEFTSGGPLGQKRDPKEWIPRPPEKYALSGHRSPVTRVIFHPVFSVMVSASEDATIKVWDYETGDFERTLKGHTDSVQDISFDHSGKLLASCSADMTIKLWDFQGFECIRTMHGHDHNVSSVAIMPNGDHIVSASADKTIKMWEVQTGYCVKTFTGHREWVRMVRPNQDGTLIASCSNDQTVRVWVVATKECKAELREHEHVVECISWAPESSYSSISEATGSETKKSGKPGPFLLSGSRDKTIKMWDVSTGMCLMTLVGHDNWVRGVLFHSGGKFILSCADDKTLRVWDYKNKRCMKTLNAHEHFVTSLDFHKTAPYVVTGSVDQTVKVWECR [R212A]
